Measurements reported in PMC9256654, “Mechanistic basis for maintenance of CHG DNA methylation in plants” (Nature Communications, 2022).

Target: T1, Zea mays ZMET2 (residues 130-912), core fragment harboring the CD, BAH and MTase domains (Zea mays, UniProt Q9AXT8 130-912, in the crystallised complex C517 is covalently linked to the target 5-fluorocytosine (fC10) of the hmCAG DNA)
T1 construct: ZMET2, chromomethylase, CMT3 ortholog of Zea mays, residues 130-912; in the enzymatic assays and the EMSA the free protein was used; also called WT ZMET2; source: E. coli BL21 DE3 (RIL), purified (Ni-NTA, Heparin HP, Superdex 200); not shown: His6-SUMO, N-terminal, cleaved
T1 sequence (looked up): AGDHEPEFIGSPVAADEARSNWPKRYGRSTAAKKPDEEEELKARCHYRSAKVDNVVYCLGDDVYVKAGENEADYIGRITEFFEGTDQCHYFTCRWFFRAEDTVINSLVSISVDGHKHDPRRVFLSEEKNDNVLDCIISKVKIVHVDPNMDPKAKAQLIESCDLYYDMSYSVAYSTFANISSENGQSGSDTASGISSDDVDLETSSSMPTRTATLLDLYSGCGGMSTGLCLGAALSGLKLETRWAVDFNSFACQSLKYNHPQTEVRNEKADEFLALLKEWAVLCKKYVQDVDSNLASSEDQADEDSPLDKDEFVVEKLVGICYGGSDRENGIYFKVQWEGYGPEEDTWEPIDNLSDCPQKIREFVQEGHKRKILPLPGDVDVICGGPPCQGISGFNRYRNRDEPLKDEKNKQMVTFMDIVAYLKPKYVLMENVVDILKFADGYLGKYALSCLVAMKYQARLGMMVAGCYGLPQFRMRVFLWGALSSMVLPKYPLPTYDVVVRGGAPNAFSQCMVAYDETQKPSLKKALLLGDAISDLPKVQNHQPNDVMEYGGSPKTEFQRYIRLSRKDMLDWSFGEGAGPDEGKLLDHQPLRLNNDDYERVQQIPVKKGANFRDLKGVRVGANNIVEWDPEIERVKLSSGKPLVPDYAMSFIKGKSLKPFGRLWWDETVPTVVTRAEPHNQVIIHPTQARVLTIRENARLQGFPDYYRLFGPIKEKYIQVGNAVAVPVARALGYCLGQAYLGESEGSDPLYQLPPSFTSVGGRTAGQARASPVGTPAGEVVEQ
Assay: crystal structure; covalent ZMET2-hmCAG DNA complex with the H3_(1–32)Kc9me2 peptide and SAH; sitting drop at 4 °C, 0.1 M sodium citrate pH 5.5, 15% w/v polyethylene glycol 6000
Details: both partners purified

B1: histone H3 peptide residues 1-32 harboring the Kc9me2 modification (methyl-lysine analog of H3K9me2) (peptide)
peptide: not shown
modifications: Kc9me2: cysteine 9 (K9C) alkylated with (2-chloroethyl)-dimethylammonium chloride to the methyl-lysine analog of dimethyl-lysine
notes: Histone H3 residues 1-32; The removal of the His6-SUMO tag is told only through 'initial purification as described above'; also called H3_(1–32)Kc9me2; H3Kc9me2; source: E. coli BL21 DE3 (RIL), purified (HiTrap SP HP), alkylated, purified again (HiTrap SP HP); not shown: His6-SUMO, N-terminal, cleaved
- stoichiometry N: 2 peptides per ZMET2 complex
